# According to patent US5792641:
# What was measured:
# [1] = target: Humicola insolens 43 kD endoglucanase (Humicola insolens)
# [2] = target: Variant II: V240P+Q241P (Humicola insolens)
# [3] = target: Variant I: V221S+N222S+Q223T (Humicola insolens)
substance,measurement,setting,value
Savinase® protease (from UniProt P29600) (enzyme),"Residual Activity, % DAA (25° C., 5d) after storage in liquid detergent with Savinase protease",[1],63%
same,"Residual Activity, % DAA (25° C., 5d) after storage in liquid detergent with Savinase protease",[2],81%
same,"Residual Activity, % DAA (25° C., 5d) after storage in liquid detergent with Savinase protease",[3],83%
